Laboratory results published in article PMC6264893.

Assays:
[1] = biological target: ProTα labeled at positions 56 and 110 (FRET-labeled prothymosin α) (human) (UniProt P06454); experiment: stopped-flow FRET kinetics
[2] = biological target: prothymosin α (unlabeled, wildtype) (human) (UniProt P06454); experiment: NMR titration
[3] = biological target: ProTα labeled at positions 56 and 110 (FRET-labeled prothymosin α) (human) (UniProt P06454); experiment: FRET or BRET

Chain of linker histone H1.0 (P07305 whole entry): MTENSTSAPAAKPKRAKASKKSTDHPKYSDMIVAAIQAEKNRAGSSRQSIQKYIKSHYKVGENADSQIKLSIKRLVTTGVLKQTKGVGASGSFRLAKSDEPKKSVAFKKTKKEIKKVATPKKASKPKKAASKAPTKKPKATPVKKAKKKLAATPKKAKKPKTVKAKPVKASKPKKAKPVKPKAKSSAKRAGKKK

Row | Substance | koff [1] | stoichiometry N [2] | Kd [3]
1 | linker histone H1.0 (from UniProt P07305 1-194) (natural protein) | 0.0065 s⁻¹ |  | 
2 | globular domain of H1 (domain or fragment) |  | > 4 | 1900 nM
